Assay results as given in US20220227874A1, “CHIMERIC ANTIGEN RECEPTORS TARGETING EPIDERMAL GROWTH FACTOR RECEPTOR VARIANT III” (published 2022).

B1: 32G8 (antibody, V domains shown)
VH: EVNLVESGGGLVKPGGSLRLSCEASGFTFSYAWMSWVRQAPGKGLEWVGRIKSITDGGVIDYAAPVRNRCTISRDDSRNTLYLEMHSLKTEDTAVYYCTTIPGNDDFDMWGQGRMVTVSS
VL: DIVLTQSPLSLSVTPGEPASISCRSSQSLLYSNGKNYLDWFLHKPGQSPQLLIYLGSNRASGVPDRFSGSGSGIDFILKISRVEAEDVGVYYCMQAQQTPITFGQGTRLEIK
B2: 34E7 (antibody, V domains shown)
VH: EVNLVESGGGLVKPGGSLRLSCEASGFTFSYAWMSWVRQAPGKGLEWVGRIKSINDGGATDYASPVRNRFTISRDDSRNMLYLEMHSLKTEDTAVYYCTTIPGNDAFDMWGQGTLVTVSS
VL: DIVLTQSPLSLSVTPGEPASISCRSTQSLLYSNGKNYLDWFLHKPGQSPQLLIFLGSIRASGVPDRFSGSGSGIDFILKISRVEAEDVGVYYCMQAQQTPITFGQGTRLEIK

Legend:
[1] = biological target: T1, EGFRvIII expressed on cells (F98-npEGFRvIII, NCI-H522-EGFRvIII, U87-KO-EGFRvIII) (human); assay: flow cytometry, EGFRvIII expressing cell line against non-expressing cell lines
[2] = biological target: T1, EGFRvIII expressed on cells …; assay: flow cytometry, F98-EGFRvIII cells; 2nd Ab only 322
[3] = biological target: T1, EGFRvIII expressed on cells …; assay: flow cytometry, F98-EGFRvIII cells; 2nd Ab only 1.3

| Binder | fold MFI over non-expressing cell lines [1] | MFI [2] | % positive [3] |
| --- | --- | --- | --- |
| B1 | ≥ 10 fold | 3730 | 98.6% |
| B2 | ≥ 10 fold | 4130 | 98.5% |
